Blank lines part the entries; values can stand above or below the binder they belong to.
Legend:
[1] = molecular target: IgG1 Fc/Fc* bispecific antibody; assay: flow cytometry sandwich: antibody displayed on CHO cells by CSCP FcγR, detected with labeled Ab2; signal needs both capture and detection
[2] = molecular target: IgG1 Fc/Fc monospecific antibody; assay: as above
[3] = molecular target: IgG4 Fc/Fc* bispecific antibody; assay: as above
[4] = molecular target: IgG4 Fc*/Fc* monospecific antibody; assay: as above
[5] = molecular target: IgG4 Fc/Fc monospecific antibody; assay: as above
[6] = molecular target: IgG1 Fc/Fc* bispecific antibody; assay: flow cytometry sandwich: antibody displayed on CHO cells by CSCP ScFv*-FcγR, hFc block, detected with Alexa 488-labeled Ab2; signal needs both capture and detection
Experimental: (§1) Conversely, the Ab6-derived anti-Fc*-specific ScFv*-FcγR surface capture system was tested for its ability to detect and enrich for cells that produce bispecific antibodies. […] The Ab6-derived anti-Fc*-specific ScFv*-FcγR surface capture cell line was able to detect and distinguish the bispecific antibody (Fc/Fc*) over the Fc*/Fc* or Fc/Fc monospecific antibodies using the Fc-specific Ab2 as the detection molecule (Table 4). The FcγR surface capture cell line was not able to distinguish between the Fc/Fc*, Fc*/Fc*, and Fc/Fc IgG4 species.

[7] = molecular target: IgG1 Fc*/Fc* monospecific antibody; assay: as above
Experimental: as §1

[8] = molecular target: IgG1 Fc/Fc monospecific antibody; assay: as above
Experimental: as §1

[9] = molecular target: T1, human Fc homodimer (human, UniProt P01861 120-325 = IgG part); assay: SPR (Biacore 2000), antibody captured on anti-mouse-Fc surface, Fc dimer injected
T1 construct: His 95 and Tyr 96 (IMGT) in CH3; also called Fc/Fc; hFc
Experimental: (§2) Measurements to determine binding affinities and kinetic constants were made on a Biacore 2000 instrument. Antibodies (each of Ab1-Ab8) were captured onto an anti-mouse-Fc sensor surface (Mab capture format), and human Fc (SEQ ID NO 26) homodimers, human Fc* homodimers (SEQ ID NO:42), or Fc/Fc* heterodimers were injected over the surface. Kinetic association (kₐ) and dissociation (kd) rate constants were determined by processing and fitting the data to a 1:1 binding model using Scrubber 2.0 curve fitting software.

[10] = molecular target: T2, human Fc* homodimer (human); assay: SPR (Biacore 2000), antibody captured on anti-mouse-Fc surface, Fc dimer injected, 1:1 fit
T2 construct: also called Fc*/Fc*; human ΔAdpFc polypeptide
Experimental: as §2

[11] = molecular target: IgG1 Fc/Fc* bispecific antibody; assay: flow cytometry sandwich: antibody displayed on CHO cells by CSCP FcγR, detected with FITC-labeled Ab6; signal needs both capture and detection
[12] = molecular target: IgG1 Fc*/Fc* monospecific antibody; assay: as above
[13] = molecular target: IgG1 Fc/Fc monospecific antibody; assay: as above
[14] = molecular target: IgG1 Fc/Fc* bispecific antibody; assay: flow cytometry sandwich: antibody displayed on CHO cells by CSCP ScFv-FcγR, hFc block, detected with FITC-labeled Ab6; signal needs both capture and detection
Experimental: (§3) The Ab2-derived anti-Fc-specific ScFv-FcγR surface capture system was tested for its ability to detect and enrich for cells that produce bispecific antibodies. To assess the ability to detect bispecific antibodies, which harbor the 95R/435R-96F/436F substitution in one of the CH3 domains (designated Fc*), various antibodies were expressed in the Ab2-derived anti-Fc-specific ScFv-FcγR surface capture cell line, using hFc as the blocking molecule, and a FITC-labeled Ab6 anti-Fc* antibody (e.g., mAb with HC of SEQ ID NO:40, and LC of SEQ ID NO:41) as the detection molecule. The Ab2-derived anti-Fc-specific ScFv-FcγR surface capture cell line was able to detect and distinguish the bispecific antibody (Fc/Fc*) over any Fc*/Fc* or Fc/Fc monospecific antibodies using the Fc*-specific Ab6 as the detection molecule (Table 4). The wildtype FcγR surface capture cell line was not able to distinguish between the Fc/Fc*, Fc*/Fc*, and Fc/Fc IgG4 species, since FcγR is unable to bind, or binds at very low affinity to IgG4.

[15] = molecular target: IgG1 Fc*/Fc* monospecific antibody; assay: as above
Experimental: as §3

[16] = molecular target: IgG1 Fc/Fc monospecific antibody; assay: as above
Experimental: as §3

[17] = molecular target: IgG4 Fc/Fc* bispecific antibody; assay: as above
Experimental: as §3

[18] = molecular target: IgG4 Fc*/Fc* monospecific antibody; assay: as above
Experimental: as §3

[19] = molecular target: IgG4 Fc/Fc monospecific antibody; assay: as above
Experimental: as §3

T1 sequence (P01861 other isoform, or with tags, fused parts or gaps limits assumed): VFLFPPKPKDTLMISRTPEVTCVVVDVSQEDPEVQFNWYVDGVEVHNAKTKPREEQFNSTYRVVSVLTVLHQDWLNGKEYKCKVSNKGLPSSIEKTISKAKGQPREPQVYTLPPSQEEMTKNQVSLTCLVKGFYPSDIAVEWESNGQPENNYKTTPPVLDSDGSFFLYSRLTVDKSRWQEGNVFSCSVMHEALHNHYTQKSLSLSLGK

- Mean Fluorescence Intensity (MFI) [1]: 500 MFI
- Mean Fluorescence Intensity (MFI) [2]: 350 MFI
- Mean Fluorescence Intensity (MFI) [3]: 200 MFI
- Mean Fluorescence Intensity (MFI) [4]: 200 MFI
- Mean Fluorescence Intensity (MFI) [5]: 200 MFI
- Mean Fluorescence Intensity (MFI) [6]: 150 MFI
- Mean Fluorescence Intensity (MFI) [7]: 10 MFI
- Mean Fluorescence Intensity (MFI) [8]: 10 MFI
B1: Ab2 (antibody, V domains shown)
VH: QLQQSGAELAKPGASVKMSCKASGYTFTNYWIHWEKQRPEQGLEWIGYINPNTGHTEYNQKFKDKATLTADRSSSTAYMQLSSLTSEDSAVYFCARTYSGSSHFDYWGQGTTL
VL: DIVMTQTPVSLPVSLGDQASISCRSSQSLVHNNGDTFLHWYLQKPGQSPKLLIYKVSNRFSGVPDRFSGSGSGTDFTLKISRVEAEDLGVYFCSQTTLIPRTFGGGTKLEI
notes: From Velocimmune mice, captured by anti-mouse-Fc in SPR; also called Fc-specific Ab2; Ab2 anti-Fc antibody

- binding result [9]: no binding
- Kd [10]: 679 pM
- koff [10]: 0.000593 s⁻¹
- kon [10]: 873000 M⁻¹ s⁻¹
- t½ [10]: 19 min
- Mean Fluorescence Intensity (MFI) [11]: 200 MFI
- Mean Fluorescence Intensity (MFI) [12]: 200 MFI
- Mean Fluorescence Intensity (MFI) [13]: 200 MFI
- Mean Fluorescence Intensity (MFI) [14]: 500 MFI
- Mean Fluorescence Intensity (MFI) [15]: 15 MFI
- Mean Fluorescence Intensity (MFI) [16]: 15 MFI
- Mean Fluorescence Intensity (MFI) [17]: 500 MFI
- Mean Fluorescence Intensity (MFI) [18]: 15 MFI
- Mean Fluorescence Intensity (MFI) [19]: 15 MFI
B2: Ab6 (antibody, mouse IgG2a, kappa, V domains shown)
VH: EVQLVESGGAIVKPGGSHRVSCEASGFTFSNAWMSWVRQAPGRGLEWVGRILSKTDGGTTDYAAPVKDRFTISRDDSKNMLFLQMDSLKIEDTAVYFCTTADFWSAYSSDYWGQGTLVTVSS
VL: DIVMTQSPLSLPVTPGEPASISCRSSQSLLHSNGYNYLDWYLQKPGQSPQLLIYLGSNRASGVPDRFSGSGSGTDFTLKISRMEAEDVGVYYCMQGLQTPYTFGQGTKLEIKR
notes: also called Fc*-specific Ab6; Ab6 anti-Fc* antibody

Reference: US20140072980A1 (Regeneron, published 2014)
